For data set [1], the system named is Compound 1.
Data set [2] has as its system Compound 4.
In data set [3] the test system is Compound 5.
Data set [4] deals with T1, Compound 7.
T1 sequence: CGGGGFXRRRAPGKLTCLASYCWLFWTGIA

The values that follow come from patent US20150184142.

Turning to thrombin, the “cleavage by 1.4 nM thrombin at 37 C, HPLC” value is 30% of Compound 1 was quickly cleaved and released in data set [1]; “Compound 1 was a better substrate for thrombin than Compounds 4 and 5” in data set [2]; “Compound 1 was a better substrate for thrombin than Compounds 4 and 5” in data set [3]. Moreover, the “cleavage rate with 14 nM thrombin, HPLC, against Compound 2” value in data set [1] is listed as “at least 10-fold increase in cleavage rate compared to that of Compound 2”. For the same substance, the “cleavage by 1.4 nM thrombin in PBS at 37 C, HPLC” value in data set [4] is “Approximately 90% of Compound 7 was cleaved after 30 minutes”.
